“And” between values parts separate entries of the source, which are not always exact repeats. Identical values can stand only once.
What was measured:
[1] = Ca2+ sensitivity curves of reconstituted photoproteins (L/Lmax vs free Ca2+); assay type: biochemical; conditions: for Relative intensity at pCa 6.5 / Relative intensity at pCa 7.2 / affinity to calcium group relative to Aeq-wt: CLZ-f; for Relative intensity at pCa 6.5 / Relative intensity at pCa 7.2: L/Lmax compared to Aeq-wt; for affinity to calcium group relative to Aeq-wt: at pCa 6.5, FIG. 2; for EC50: aequorin proteins reconstituted with CLZ-f, sigmoidal curve fit, mean ± SD, n at least 3, read-out: Calcium sensitivity, EC50
Description: For in vitro reconstitution, the purified and concentrated samples of apoaequorin and redquorin mutant proteins were buffer-exchanged to 50 mM Tris-HCl (pH 7.5), 150 mM NaCl, 10 mM EGTA, 5 mM ß-mercaptoethanol, supplemented with 5 μM CLZ-f or CLZ-native and incubated overnight at 4° C., in the dark. The next day, samples were passed through molecular weight cut-offs (AmiconUitra MWCO, 10K and 50K, from Millipore), then resuspended in Zero-Ca^2+ buffer (30 mM MOPS, 100 mM KCl and 10 mM EGTA, pH 7.2) for calcium affinity, emission decay kinetics and spectral analysis assays. As for in cellulo reconstitution, HEK cells transiently expressing the proteins of apoaequorin and aporedquorin mutants were washed twice with Hank's Balanced Salt Solution (HBSS) and incubated in the dark, with 4 μM of the desired CLZ diluted in OptiMEM I medium (Gibco), for 2-3h at 37° C. and 5% CO2. Cells were washed once and maintained in HBSS at 37° C. for 20 min before the experiment.
Functional Analysis of Aequorin Mutants and Fusions Ca^2+ Sensitivity Curves.
Purified and reconstituted samples with CLZ-f or CLZ-native already buffered-exchanged to zero-calcium buffer ensured to minimize calcium contamination that could interfere with the measurements. Fifteen microliter aliquot of photoprotein samples (concentration range, 50 to 90 ng/μl) was placed in a home-made luminometer and mixed with 300 μl solution containing the desired concentration of free-Ca^2+. The solutions of EGTA-buffered with varying free-Ca^2+ prepared according to the manufacturer instruction for the kit (Molecular Probes, Invitrogen). Integration of the luminescence emission (per second) was measured for 20 seconds (background) before injecting a solution with known [free-Ca^2+] and lasted until stable or decaying signal (at final-phase) was obtained. At this point, 400 μl of a saturating calcium solution (30 mM MOPS, 100 mM CaCl2, pH 7.2) was rapidly injected (less than 30 ms) and light integration continued until all aequorin had been consumed and light intensity had gone back to background signal. Luminescence intensity (L) at different [Ca^2+] was taken as the response peak value in case of decaying signal or as the stable value in case of stable emission. Lmax, was measured by integrating all remaining luminescence signal from that moment (L value) to the end of the experiment. The EC50 values were extracted from a sigmoidal dose-response fit (variable slope) using GraphPad Prism software.

[2] = Thermostability: relative bioluminescence activity after 30 min incubation; assay type: physicochemical; conditions: for Thermostability, luminescence activity relative to wt-aequorin: CLZ-f
Description: Thermostability of aequorin and redquorin mutant with increased affinity for calcium were compared to wt-aequorin (FIG. 5). The purified photoprotein samples were reconstituted with CLZ-f (as detailed earlier) and let to calibrate at room temperature (20-24° C.) for 20 min before taken the first measurement of total counts using saturating calcium solution (50 mM Tris-HCl, 100 mM CaCl2, pH 7.5). Samples were then incubated at two different temperatures (30 to 40° C.) for 30 min, and let equilibrate at room temperature for 15 minbefore taken the second measurement of total counts in the sample. The relative bioluminescence activity at each temperature was calculated by the ratio 2nd counts (at target T° C.)/1st counts (at initial T° C.) multiplied by 100.
Table 6 highlights the analysis of thermostability data obtained at two temperatures for aequorin and redquorin mutants, as well as CitA and GA. The values represent the degree of change in luminescence activity compared to wt-aeq, at each temperature. All values are relative to wt-aequorin (at each temperature) and were calculated by dividing the obtained data for each mutant/variant by the data for wt-aeq (as reference). The data were taken from FIG. 5.

Row | Molecule | Relative intensity at pCa 6.5 [1] | Relative intensity at pCa 7.2 [1] | affinity to calcium group relative to Aeq-wt [1] | EC50 [1] [nM] | Thermostability, luminescence activity relative to wt-aequorin ([2]; 30° C. for 30 min) | Thermostability, luminescence activity relative to wt-aequorin ([2]; 40° C. for 30 min) | less activity compared to wt-aeq (thermostability) ([2]; after incubation at 30 and 40° C.) [%]
1 | A123D: apoaequorin mutant, alanine 123 replaced by aspartic acid (SEQ ID NO:10) (protein, mutant aequorin) SKLTSDFDNPRWIGRHKHMFNFLDVNHNGKISLDEMVYKASDIVINNLGATPEQAKRHKDAVEAFFGGAGMKYGVETDWPAYIEGWKKLATDELEKYAKNEPTLIRIWGDALFDIVDKDQNGDITLDEWKAYTKAAGIIQSSEDCEETFRVCDIDESGQLDVDEMTRQHLGFWYTMDPACEKLYGGAVP | 3.6 | 1.6 | medium-high to high | 374 | 0.82 | 0.84 | 19
2 | QT + ND: apoaequorin double mutant Q159T + N121D (SEQ ID NO:14) (protein, mutant aequorin) SKLTSDFDNPRWIGRHKHMFNFLDVNHNGKISLDEMVYKASDIVINNLGATPEQAKRHKDAVEAFFGGAGMKYGVETDWPAYIEGWKKLATDELEKYAKNEPTLIRIWGDALFDIVDKDQDGAITLDEWKAYTKAAGIIQSSEDCEETFRVCDIDESGTLDVDEMTRQHLGFWYTMDPACEKLYGGAVP | 14.4 | 12.2 | – | 337 ± 10 | – | – | –
3 | Q140R: aequorin single mutant Q140R, low calcium affinity (protein) SKLTSDFDNPRWIGRHKHMFNFLDVNHNGKISLDEMVYKASDIVINNLGATPEQAKRHKDAVEAFFGGAGMKYGVETDWPAYIEGWKKLATDELEKYAKNEPTLIRIWGDALFDIVDKDQNGAITLDEWKAYTKAAGIIRSSEDCEETFRVCDIDESGQLDVDEMTRQHLGFWYTMDPACEKLYGGAVP | – | – | low | – | – | – | –
4 | QT + AT: apoaequorin double mutant Q159T + A179T (SEQ ID NO:18) (protein, mutant aequorin) SKLTSDFDNPRWIGRHKHMFNFLDVNHNGKISLDEMVYKASDIVINNLGATPEQAKRHKDAVEAFFGGAGMKYGVETDWPAYIEGWKKLATDELEKYAKNEPTLIRIWGDALFDIVDKDQNGAITLDEWKAYTKAAGIIQSSEDCEETFRVCDIDESGTLDVDEMTRQHLGFWYTMDPTCEKLYGGAVP | 29.0 | 14.0 | – | 281 ± 25 | – | – | –
5 | Q159E: apoaequorin mutant, glutamine 159 replaced by glutamic acid (SEQ ID NO:8) (protein, mutant aequorin) SKLTSDFDNPRWIGRHKHMFNFLDVNHNGKISLDEMVYKASDIVINNLGATPEQAKRHKDAVEAFFGGAGMKYGVETDWPAYIEGWKKLATDELEKYAKNEPTLIRIWGDALFDIVDKDQNGAITLDEWKAYTKAAGIIQSSEDCEETFRVCDIDESGELDVDEMTRQHLGFWYTMDPACEKLYGGAVP | – | – | – | – | 0.89 | 0.94 | –
6 | S157T: aequorin single mutant S157T, medium-low calcium affinity (protein) SKLTSDFDNPRWIGRHKHMFNFLDVNHNGKISLDEMVYKASDIVINNLGATPEQAKRHKDAVEAFFGGAGMKYGVETDWPAYIEGWKKLATDELEKYAKNEPTLIRIWGDALFDIVDKDQNGAITLDEWKAYTKAAGIIQSSEDCEETFRVCDIDETGQLDVDEMTRQHLGFWYTMDPACEKLYGGAVP | – | – | medium-low | – | – | – | –
7 | A179T: apoaequorin mutant, alanine 179 replaced by threonine (SEQ ID NO:11) (protein, mutant aequorin) SKLTSDFDNPRWIGRHKHMFNFLDVNHNGKISLDEMVYKASDIVINNLGATPEQAKRHKDAVEAFFGGAGMKYGVETDWPAYIEGWKKLATDELEKYAKNEPTLIRIWGDALFDIVDKDQNGAITLDEWKAYTKAAGIIQSSEDCEETFRVCDIDESGQLDVDEMTRQHLGFWYTMDPTCEKLYGGAVP | 3.0 | 1.3 | medium-high to high | 330 | 0.96 | 1.02 | –
8 | Q159T: apoaequorin mutant, glutamine 159 replaced by threonine (SEQ ID NO:6) (protein, mutant aequorin) SKLTSDFDNPRWIGRHKHMFNFLDVNHNGKISLDEMVYKASDIVINNLGATPEQAKRHKDAVEAFFGGAGMKYGVETDWPAYIEGWKKLATDELEKYAKNEPTLIRIWGDALFDIVDKDQNGAITLDEWKAYTKAAGIIQSSEDCEETFRVCDIDESGTLDVDEMTRQHLGFWYTMDPACEKLYGGAVP | 16 and 16.6 | 4.8 | medium-high to high | 249 ± 13 | 0.92 | 0.96 | –
9 | S157A: aequorin single mutant S157A, low calcium affinity (protein) SKLTSDFDNPRWIGRHKHMFNFLDVNHNGKISLDEMVYKASDIVINNLGATPEQAKRHKDAVEAFFGGAGMKYGVETDWPAYIEGWKKLATDELEKYAKNEPTLIRIWGDALFDIVDKDQNGAITLDEWKAYTKAAGIIQSSEDCEETFRVCDIDEAGQLDVDEMTRQHLGFWYTMDPACEKLYGGAVP | – | – | low | – | – | – | –
10 | Q159D: apoaequorin mutant, glutamine 159 replaced by aspartic acid (SEQ ID NO:5) (protein, mutant aequorin) SKLTSDFDNPRWIGRHKHMFNFLDVNHNGKISLDEMVYKASDIVINNLGATPEQAKRHKDAVEAFFGGAGMKYGVETDWPAYIEGWKKLATDELEKYAKNEPTLIRIWGDALFDIVDKDQNGAITLDEWKAYTKAAGIIQSSEDCEETFRVCDIDESGDLDVDEMTRQHLGFWYTMDPACEKLYGGAVP | 25 and 25.1 | – | medium-high to high and high | 330 | 0.95 | 1.00 | –
11 | QT + AD: apoaequorin double mutant Q159T + A123D (SEQ ID NO:16) (protein, mutant aequorin) SKLTSDFDNPRWIGRHKHMFNFLDVNHNGKISLDEMVYKASDIVINNLGATPEQAKRHKDAVEAFFGGAGMKYGVETDWPAYIEGWKKLATDELEKYAKNEPTLIRIWGDALFDIVDKDQNGDITLDEWKAYTKAAGIIQSSEDCEETFRVCDIDESGTLDVDEMTRQHLGFWYTMDPACEKLYGGAVP | 22.8 | 10.0 | – | 279 | – | – | –

Source: US20180319855A1, “GENETICALLY MUTATED AEQUORIN-BASED BIOSENSORS WITH EXTRA SENSITIVITY TO CALCIUM AND IMPROVED BIOLUMINESCENCE INTENSITY” (CENTRE NATIONAL DE LA RECHERCHE SCIENTIFIQUE (CNRS), priority 2015, published 2018)
